From paper PMC9902533, “Direct digital sensing of protein biomarkers in solution” come the findings set out here.

One data set concerns the target CD63 on exosomes (human? (MDA-MB-231 breast cancer cell …, UniProt P08962 2-238)). Briefly: microchip free-flow electrophoresis, single-particle counting (DigitISA); 5, 50, 100 nM aptamer; isolated exosomes; 10 mM HEPES pH 7.4, 0.05% Tween-20, room temperature (IgE; fibrils and exosomes same buffer); FUS: 50 mM Tris-HCl pH 7.4, 25 mM KCl, 0.02% Tween-20, on-chip desalting; oligomers: from PBS pH 7.4, on-chip desalting. The note with it: protein: native; tags: none; label: fluorescent label, not specified.

The target of data set [1] is alpha-synuclein oligomers (human, UniProt P37840 1-140). Briefly: microchip free-flow electrophoresis, single-molecule counting (DigitISA); 100 nM aptamer; complex 32.7 pM; 10 mM HEPES pH 7.4, 0.05% Tween-20, room temperature (IgE; fibrils and exosomes same buffer); FUS: 50 mM Tris-HCl pH 7.4, 25 mM KCl, 0.02% Tween-20, on-chip des.
The next data set addresses FUS-SNAP (UniProt P35637 1-526). Briefly: microchip free-flow electrophoresis (DigitISA); 700 nM aptamer, 2 uM FUS, condensates present; monomer-bound vs free; 10 mM HEPES pH 7.4, 0.05% Tween-20, room temperature (IgE; fibrils and exosomes same buffer); FUS: 50 mM Tris-HCl pH 7.4, 25 mM KCl, 0.02% Tween-20, on-chip desalting; oligomers: from PBS pH 7.4, on-chip desalting. The settings on record: protein: recombinant; tags: SNAP; label: 3'-Atto488.

Sequence of CD63 on exosomes (human? (P08962 2-238): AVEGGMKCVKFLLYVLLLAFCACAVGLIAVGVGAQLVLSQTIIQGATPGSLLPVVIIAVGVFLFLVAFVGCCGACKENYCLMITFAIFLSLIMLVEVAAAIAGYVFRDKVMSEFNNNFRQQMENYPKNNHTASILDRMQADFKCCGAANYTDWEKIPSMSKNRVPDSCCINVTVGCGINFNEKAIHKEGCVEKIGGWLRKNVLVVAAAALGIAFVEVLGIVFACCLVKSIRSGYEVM
Sequence of FUS-SNAP (P35637 whole entry): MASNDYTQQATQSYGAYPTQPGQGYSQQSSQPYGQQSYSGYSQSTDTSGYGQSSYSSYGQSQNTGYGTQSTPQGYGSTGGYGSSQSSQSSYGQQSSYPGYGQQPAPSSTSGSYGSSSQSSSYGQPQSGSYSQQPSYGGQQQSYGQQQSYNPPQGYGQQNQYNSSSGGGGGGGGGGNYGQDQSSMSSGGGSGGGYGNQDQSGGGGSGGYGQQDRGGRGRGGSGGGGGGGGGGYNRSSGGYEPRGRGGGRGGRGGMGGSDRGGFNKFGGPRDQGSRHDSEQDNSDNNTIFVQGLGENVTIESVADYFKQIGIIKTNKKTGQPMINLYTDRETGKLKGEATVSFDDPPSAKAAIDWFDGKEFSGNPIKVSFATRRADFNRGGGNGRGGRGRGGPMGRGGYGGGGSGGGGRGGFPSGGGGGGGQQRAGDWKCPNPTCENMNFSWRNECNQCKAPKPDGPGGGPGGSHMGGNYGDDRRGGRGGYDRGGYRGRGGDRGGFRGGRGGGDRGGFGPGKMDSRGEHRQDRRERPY

Consider CACCCCACCTCGCTCCCGTGACACTAATGCTA (structured_DNA) [CD63 aptamer], for which the binding result with CD63 on exosomes is recorded as “binds”. For the molecule TTTTGGGTCGGCTGTCCGTGGGTGGGGA (structured_DNA) [T-SO606 aptamer], the binding result in data set [1] was “binds”. What is called Kd is the constant that tells how readily two partners part at equilibrium. For the molecule UUGUAUUUUGAGCUAGUUUGGUGAC (ssRNA) [GGUG RNA aptamer], the Kd with FUS-SNAP stood at 280 ± 20 nM.
